Biological target: HCV NS5B RNA-dependent RNA polymerase (Hepatitis C virus (strain ), UniProt Q9WMX2 2421-3010)
Test: protein chip with QD fluorescence

Sequence of HCV NS5B RNA-dependent RNA polymerase (Q9WMX2 2421-3010): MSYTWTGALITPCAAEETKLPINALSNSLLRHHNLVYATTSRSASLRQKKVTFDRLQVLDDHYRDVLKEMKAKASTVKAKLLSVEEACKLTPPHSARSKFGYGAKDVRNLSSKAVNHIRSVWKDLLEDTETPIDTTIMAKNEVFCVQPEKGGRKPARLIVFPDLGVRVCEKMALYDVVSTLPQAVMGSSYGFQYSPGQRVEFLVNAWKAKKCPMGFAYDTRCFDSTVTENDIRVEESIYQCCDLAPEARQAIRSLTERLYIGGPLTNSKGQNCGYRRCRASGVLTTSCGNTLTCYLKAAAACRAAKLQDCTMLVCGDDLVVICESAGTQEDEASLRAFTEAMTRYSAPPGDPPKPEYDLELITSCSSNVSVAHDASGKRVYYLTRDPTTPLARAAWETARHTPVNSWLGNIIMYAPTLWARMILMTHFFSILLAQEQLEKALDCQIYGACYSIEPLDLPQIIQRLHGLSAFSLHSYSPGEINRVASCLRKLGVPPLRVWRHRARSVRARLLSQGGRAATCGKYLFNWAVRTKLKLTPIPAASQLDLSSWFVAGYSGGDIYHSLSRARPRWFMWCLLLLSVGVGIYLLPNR

CCCCACAUUCUCACCCCCUC (ssRNA, 5'-amine) [NS5Bmut RNA oligonucleotide]: no binding.

Reference: publication PMC2875725
